Holding throughout (conditions): remark: other sources report otherwise
The target of assay [1] is T1, recombinant soluble homotrimeric HA of A/Netherlands/219/03 (H7N7) (Influenza A virus A/Netherlands/219/03(H7N7)).
For assay [2], the target named is recombinant soluble homotrimeric HA of A/Hong Kong/1073/99 (H9N2) (Influenza A virus A/Hong Kong/1073/99 (H9N2)).
Assay [3] has as its target T2, recombinant soluble homotrimeric HA of A/Egypt/3300-NAMRU3/08 (H5N1) (Influenza A virus A/Egypt/3300-NAMRU3/2008(H5N1)).
Assay [4] has as its target recombinant soluble homotrimeric HA of A/Hong Kong/156/97 (H5N1) (Influenza A virus A/Hong Kong/156/97 (H5N1)).
The target of assay [5] is T3, recombinant soluble homotrimeric HA of A/South Carolina/1/18 (H1N1) (Influenza A virus A/South Carolina/1/18 (H1N1)).
Assay [6] deals with T4, recombinant soluble homotrimeric HA of A/Solomon Islands/3/06 (H1N1) (Influenza A virus A/Solomon Islands/3/2006(H1N1)).
Assay [7] addresses T5, recombinant soluble homotrimeric HA of A/Japan/305/57 (H2N2) (Influenza A virus A/Japan/305/1957(H2N2)). As to the kind of experiment: trimeric HA microarray, transfection supernatant set 1.
For assay [8], the target named is T6, recombinant soluble homotrimeric HA of A/chicken/Vietnam/NCVD-016/08 (H5N1) (Influenza A virus A/chicken/Vietnam/NCVD-016/2008(H5N1)). Described as above.
Assay [9] concerns the target T1, recombinant soluble homotrimeric HA of …. The description is as above.
Assay [10] concerns the target T7, recombinant soluble homotrimeric HA of A/California/4/09 (H1N1) (Influenza A virus A/California/04/2009(H1N1)). Described as above.
Assay [11] concerns the target T8, recombinant soluble homotrimeric HA of A/Vietnam/1203/04 (H5N1) (Influenza A virus A/VietNam/1203/2004(H5N1)). The description is as above.
Assay [12] has as its target T2, recombinant soluble homotrimeric HA of …. The assay is described as above.
The target of assay [13] is T3, recombinant soluble homotrimeric HA of …. The assay is described as above.
Assay [14] concerns the target T4, recombinant soluble homotrimeric HA of …. The assay is described as above.
Assay [15] has as its target T9, recombinant soluble homotrimeric HA of A/Anhui/1/05 (H5N1) (Influenza A virus A/Anhui/1/2005(H5N1)). Described as above.
For assay [16], the target named is T10, recombinant soluble homotrimeric HA of A/Indonesia/5/05 (H5N1) (Influenza A virus A/Indonesia/5/2005(H5N1)). The description is as above.
Assay [17] deals with T5, recombinant soluble homotrimeric HA of …. The assay can be described thus: HA microarray, control antibody.
Assay [18] concerns the target recombinant soluble homotrimeric HA of A/Wisconsin/67/05 (H3N2) (Influenza A virus A/Wisconsin/67/2005(H3N2)). The assay can be described thus: HA microarray, control antibody.
Assay [19] addresses recombinant soluble homotrimeric HA of A/duck/Yangzhou/02/05 (H8N4) (Influenza A virus A/duck/Yangzhou/02/2005(H8N4)). The assay can be described thus: HA microarray, control antibody.
Assay [20] addresses T6, recombinant soluble homotrimeric HA of …. The assay can be described thus: HA microarray, control antibody.
Assay [21] deals with T1, recombinant soluble homotrimeric HA of …. The assay can be described thus: HA microarray, control antibody.
Assay [22] concerns the target T7, recombinant soluble homotrimeric HA of …. As to the kind of experiment: HA microarray, control antibody.
Assay [23] concerns the target T8, recombinant soluble homotrimeric HA of …. The assay can be described thus: HA microarray, control antibody.
The target in assay [24] is recombinant soluble homotrimeric HA of A/swine/Ontario/01911-2/99 (H4N6) (Influenza A virus A/Swine/Ontario/01911-2/99 (H4N6)). As to the kind of experiment: HA microarray, control antibody.
Assay [25] has as its target T2, recombinant soluble homotrimeric HA of …. As to the kind of experiment: HA microarray, control antibody.
Assay [26] has as its target T4, recombinant soluble homotrimeric HA of …. The assay can be described thus: HA microarray, control antibody.
Assay [27] has as its target T9, recombinant soluble homotrimeric HA of …. The assay can be described thus: HA microarray, control antibody.
The target of assay [28] is T10, recombinant soluble homotrimeric HA of …. As to the kind of experiment: HA microarray, control antibody.

The source of these data is patent US20150086555A1.

Where two headings read alike, the source gives them in different places.

B1: TCN-563 (5237_B21) (antibody, V domains shown)
VH: QVQLAQSGAEVKRPGSSVKVSCTASGGIFRKNAISWVRQAPGQGLEWMGGIIAVFNTANYAQKFQGRVKITADESGNTAYMELSSLRSDDTAVYYCASHPKYFYGSGSYPDFWGQGTLVTVSS
VL: QSALTQPRSVSGSPGQSVTISCTGSSSDVGASNSVSWYQQHPGKAPKLVIYDVTERPSGVPHRFSGSKSGNTASLTVSGLQPEDEADYFCCAYGGKYLVVFGGGTKVTVL
As to B1, the Trimeric HA Binding: RLU worked out at 1690 RLU in [1]; 4600 RLU in assay [2]; 21600 RLU in assay [3]; 17700 RLU in [4]; 16300 RLU in [5]; 21000 RLU in assay [6].

B2: TCN-523 (5248_A17) (antibody, V domains shown)
VH: QVQLVQSGAEVKKPGSSVKVSCKASGGSFSNYAFSWVRQAPGQGLEWMGGTIPLLGTTNYAQKFQGRVTISADQFTSTAYMELGSLRSEDTAVYYCTRRKMTTAFDSWGQGTLVTVSS
VL: QPVLTQPPSASASLGASVTLTCTLSSAYSNYKVDWYQQRPGKGPRFVMRVGTGGIVGSKGDGIPDRFSVLGSGLNRYLTIKNIQEEDESDYHCGADHGSGSNFVSPYVFGGGTKLTVL
Regarding B2, the Trimeric HA Binding: RLU in [7] was determined as 191 RLU; in assay [8] it was 10800 RLU; in [9] it was 28 RLU; in assay [10], 17700 RLU; in [11] it was 80 RLU; in [12], 25500 RLU. The Trimeric HA Binding: RLU in assay [13] was 26400 RLU; in assay [14] it was 6780 RLU; in [15], 60 RLU; in assay [16], 18500 RLU.

B3: TCN-504 (3251_K17) (antibody, V domains shown)
VH: QVQLQESGPGLVKPSETLSLTCAVSGVSISNIDFYWGWIRQPPGKGLEWIGNIYYTGITFYNPSLSSRVAISIDTSKNQFSLTLTSVTAADTAMYYCARHYGDSEAINDAFDIWGQGTMLTVSS
VL: EIVMTQSPATLSVSPGERATLSCRASQSVGNSLAWYQQRPGQAPRLLIYGASTRATGIPPRFSGSGSGTEFTLTISSLQTEDFAVYYCQQYINWRPLSFGGGTKVEIK
B3: the Trimeric HA Binding: RLU is 15100 RLU in [7]; 27800 RLU in assay [8]; 23800 RLU in [9]; 18300 RLU in assay [10]; 1300 RLU in assay [11]; 16100 RLU in assay [12]. Besides, the Trimeric HA Binding: RLU in assay [13] was found to be 21500 RLU; in assay [14], 29800 RLU; in [15], 29000 RLU; in [16], 16600 RLU; in assay [17], 4090 RLU; in assay [18], 40500 RLU. Besides, the Trimeric HA Binding: RLU in assay [19] was found to be 14100 RLU; in assay [20] it was 38500 RLU; in [21] it was 47200 RLU; in assay [22], 3330 RLU; in assay [23] it was 196 RLU; in assay [24], 14700 RLU. Further, the Trimeric HA Binding: RLU came out at 44400 RLU in assay [25], 24100 RLU in assay [26], 26200 RLU in [27] and 43300 RLU in assay [28].
